Where “and” joins values, the source holds several entries; their conditions need not be identical. Identical values can stand only once.
Legend:
[1] = target: the molecule itself; experiment: AUC; sedimentation velocity of fractions from the S-300 column, 0.3 mg/ml in 100 mM Tris-HCl, 45,000 rpm, 20°C, c(s) distribution (SEDFIT)
[2] = target: the molecule itself; experiment: crystal structure; MC-HSP90 in three crystal forms (C222_1 with cis-DEP, P2_1 with cisplatin, R32 with Silver Bullets No. 18); 2.5 M ammonium sulfate, 0.1 M tri-sodium citrate pH 5.4-5.8; molecular replacement
[3] = target: the molecule itself; experiment: crystal structure; MC-HSP90-Ct, P6_322 crystal; 2.6 M ammonium sulfate, 0.1 M tri-sodium citrate pH 5.0, Silver Bullets No. 70; molecular replacement

| Protein | stoichiometry N [1] | stoichiometry N [2] | stoichiometry N [3] |
| --- | --- | --- | --- |
| MC-HSP90 W320A (domain or fragment, two extra Ala residues encoded after the Factor Xa cleavage site (made on the plasmid pGEX-6p-1-MC-HSP90); human heat shock protein 90α, residues 293-732, with W320A; also called mutant W320A; mutant protein W320A of MC-HSP90; source: E. coli BL21 (DE3), expressed and purified as the wild-type MC-HSP90; not shown: GST, N-terminal, cleaved) not shown | 6 and 2 and 4 | – | – |
| MC-HSP90 (N-terminal truncated human HSP90α, middle segment and carboxy-terminal domain, residues 293–732) (domain or fragment, two extra Ala residues encoded after the Factor Xa cleavage site; found at the N-terminus by MALDI-MS of the dissolved crystal; human heat shock protein 90α, residues 293-732 (M and C domains), from a full length cDNA (NM_005348.2; 732 residues); In solution a mixture of dimer, tetramer and hexamer; The reverse primer encodes six His after the last residue; also called truncated HSP90; wild-type …) not shown | 2 and 4 | 6 | – |
| MC-HSP90-Ct (human HSP90α residues 293–697, C-terminal 35 residues also truncated) (domain or fragment, two extra Ala residues encoded after the Factor Xa cleavage site (same forward primer as MC-HSP90); human heat shock protein 90α, residues 293-697; Purified by a protocol similar to that of MC-HSP90; The reverse primer printed for this construct appears to encode eight His; also called C-terminal tail truncated MC-HSP90-Ct; source: E. coli BL21 (DE3), purified (Ni-NTA, Factor Xa cleavage, second …)) not shown | – | – | 6 |

Reference: article PMC3102065, “The Hexameric Structures of Human Heat Shock Protein 90” (PLoS ONE, 2011)
